Earlier results in article PMC2853873.
Like-named read-outs stand apart in the source and are kept apart here.

Legend:
ADAMTS-2 (Homo sapiens) [1] = molecular target: ADAMTS-2 (Homo sapiens) (UniProt O95450)
ADAMTS-2 (Homo sapiens) [2] = molecular target: ADAMTS-2 (Homo sapiens) (UniProt O95450); remark: listed apart in the source

Sequence of UniProt O95450 (O95450 254-1211): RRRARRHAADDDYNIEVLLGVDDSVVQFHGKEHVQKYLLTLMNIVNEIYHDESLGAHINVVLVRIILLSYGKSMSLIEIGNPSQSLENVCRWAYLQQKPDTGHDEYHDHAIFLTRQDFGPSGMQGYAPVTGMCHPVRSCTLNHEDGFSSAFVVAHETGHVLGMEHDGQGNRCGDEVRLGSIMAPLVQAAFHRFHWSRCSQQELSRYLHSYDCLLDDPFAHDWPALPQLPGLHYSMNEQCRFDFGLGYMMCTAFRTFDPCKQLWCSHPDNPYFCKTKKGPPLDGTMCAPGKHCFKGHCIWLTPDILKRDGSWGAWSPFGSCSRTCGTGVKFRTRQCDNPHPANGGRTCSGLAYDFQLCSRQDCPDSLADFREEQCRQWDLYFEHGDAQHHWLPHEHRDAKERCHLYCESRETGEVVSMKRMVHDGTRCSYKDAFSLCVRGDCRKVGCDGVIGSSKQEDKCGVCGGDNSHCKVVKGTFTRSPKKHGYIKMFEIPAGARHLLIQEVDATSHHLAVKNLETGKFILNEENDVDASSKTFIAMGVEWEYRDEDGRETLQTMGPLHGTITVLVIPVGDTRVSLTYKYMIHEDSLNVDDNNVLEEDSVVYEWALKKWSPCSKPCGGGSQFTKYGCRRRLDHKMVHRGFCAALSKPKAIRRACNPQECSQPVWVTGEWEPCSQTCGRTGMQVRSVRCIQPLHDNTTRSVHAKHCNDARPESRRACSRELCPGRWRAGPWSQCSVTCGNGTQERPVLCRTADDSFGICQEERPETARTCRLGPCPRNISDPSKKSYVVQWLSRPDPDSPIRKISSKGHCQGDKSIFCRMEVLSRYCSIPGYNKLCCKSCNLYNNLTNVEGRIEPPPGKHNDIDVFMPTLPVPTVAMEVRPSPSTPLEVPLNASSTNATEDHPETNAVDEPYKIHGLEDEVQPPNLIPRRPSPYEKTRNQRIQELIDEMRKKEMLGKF

For “N-TIMP-3 N-terminal domain (from UniProt P35625)”, the Ki (ADAMTS-2 (Homo sapiens) [1]) is listed as 0.16 µM and the Ki (ADAMTS-2 (Homo sapiens) [2]) is listed as 0.6 µM.
